In publication PMC2149339:
Values joined by “and” are separate entries in the source; they are usually repeats but may differ in a detail not shown here. Identical values can stand only once.

Assays:
[1] = biological target: COOH-terminal region of utrophin construct (TDRII) (UniProt P46939); assay: co-IP
[2] = biological target: COOH-terminal region of dystrophin construct (C2979) (UniProt P11532); assay: co-IP
UniProt P11532, sequence (P11532 2980-3685): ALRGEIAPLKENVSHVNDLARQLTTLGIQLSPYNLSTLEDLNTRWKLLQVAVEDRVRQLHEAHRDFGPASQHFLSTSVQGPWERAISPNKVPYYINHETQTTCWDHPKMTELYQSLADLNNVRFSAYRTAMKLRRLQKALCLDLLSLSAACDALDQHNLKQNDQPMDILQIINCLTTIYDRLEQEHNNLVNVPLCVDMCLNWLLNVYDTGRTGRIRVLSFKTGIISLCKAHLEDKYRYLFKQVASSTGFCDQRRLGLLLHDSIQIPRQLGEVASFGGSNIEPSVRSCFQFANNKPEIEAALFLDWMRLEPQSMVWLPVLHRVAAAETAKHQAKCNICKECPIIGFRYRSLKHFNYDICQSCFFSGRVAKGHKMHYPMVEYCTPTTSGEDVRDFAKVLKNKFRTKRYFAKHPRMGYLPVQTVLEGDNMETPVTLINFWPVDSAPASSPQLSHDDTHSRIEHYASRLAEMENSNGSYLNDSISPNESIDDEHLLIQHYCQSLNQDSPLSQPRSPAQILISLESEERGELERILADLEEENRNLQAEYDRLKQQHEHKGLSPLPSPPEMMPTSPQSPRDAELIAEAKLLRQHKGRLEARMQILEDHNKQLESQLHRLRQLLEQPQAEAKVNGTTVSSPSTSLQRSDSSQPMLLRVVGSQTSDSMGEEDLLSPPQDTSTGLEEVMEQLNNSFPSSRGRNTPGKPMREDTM

UniProt P46939, sequence (P46939 2753-3432): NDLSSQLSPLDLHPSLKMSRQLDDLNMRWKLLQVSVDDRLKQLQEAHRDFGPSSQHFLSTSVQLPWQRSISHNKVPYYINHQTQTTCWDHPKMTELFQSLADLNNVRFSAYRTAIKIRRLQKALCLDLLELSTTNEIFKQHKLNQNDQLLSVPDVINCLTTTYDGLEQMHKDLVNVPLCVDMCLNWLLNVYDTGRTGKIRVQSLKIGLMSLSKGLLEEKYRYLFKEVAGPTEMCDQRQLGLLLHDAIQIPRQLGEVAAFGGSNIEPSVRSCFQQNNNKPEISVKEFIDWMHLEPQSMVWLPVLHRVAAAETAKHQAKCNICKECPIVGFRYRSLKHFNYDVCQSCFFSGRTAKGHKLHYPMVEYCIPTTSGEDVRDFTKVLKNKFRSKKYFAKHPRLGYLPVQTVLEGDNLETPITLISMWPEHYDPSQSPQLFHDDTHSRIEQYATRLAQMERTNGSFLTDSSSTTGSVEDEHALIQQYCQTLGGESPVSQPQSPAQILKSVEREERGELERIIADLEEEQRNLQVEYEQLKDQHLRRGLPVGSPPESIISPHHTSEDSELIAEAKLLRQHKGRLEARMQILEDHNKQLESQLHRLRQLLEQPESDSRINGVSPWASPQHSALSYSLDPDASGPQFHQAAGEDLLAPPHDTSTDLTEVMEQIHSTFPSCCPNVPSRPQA

fold (+Ab over control without antibody) [1] | fold (+Ab over control without antibody), average of five experiments [1] [fold] | fold (+Ab over control without antibody), average of five experiments [2] [fold] | fold (+Ab over control without antibody) [2] | Substance
3.1 fold and 4 fold and 3 fold | 3.3 | 3 | – | full-length α-dystrobrevin-1 construct (exons 1-21) (natural protein)
1.3 fold and 0.9 fold and 1 fold | 1 | – | 3.7 fold and 4.2 fold and 3.3 fold | α-dystrobrevin-2 construct (exons 1-17B) (natural protein)
